The values that follow come from publication PMC4453472, “First Glycoside Hydrolase Family 2 Enzymes from Thermus antranikianii and Thermus brockianus with β-Glucosidase Activity” (Frontiers in Bioengineering and Biotechnology, 2015).

One may read the Km as the concentration of substrate that gives half-maximal velocity. By Vmax is commonly meant the rate approached at saturating substrate. Broadly, the kcat is the number of substrate molecules converted per active site and unit of time at saturation. One may read the kcat/Km as the second-order rate constant that governs catalysis at low substrate concentration.

Common to all, as to assay: purified protein
Series [1] concerns T1, O=[N+]([O-])c1ccc(O[C@@H]2O[C@H](CO)[C@@H](O)[C@H](O)[C@H]2O)cc1.
T1 construct: recombinant, pQE-80L (His-tag vector) in E. coli BL21 Star(DE3); heat precipitation and Ni-NTA
Format: biochemical, Thermus antranikianii. The conditions noted are these: 90°C, 20 mM citrate buffer pH 6.5, 0-10 mM substrate, 10 min.

Series [2] has as its system T2, O=[N+]([O-])c1ccc(O[C@@H]2O[C@H](CO)[C@H](O)[C@H](O)[C@H]2O)cc1.
T2 construct: recombinant, pQE-80L (His-tag vector) in E. coli BL21 Star(DE3); heat precipitation and Ni-NTA
Format: biochemical, Thermus antranikianii. As to conditions: 90°C, 20 mM citrate buffer pH 6.5, 0-25 mM substrate, 10 min.

Substrate in series [3]: O=[N+]([O-])c1ccc(O[C@@H]2O[C@H](CO)[C@@H](O)[C@H](O)[C@H]2O)cc1
As to conditions: 90°C, 20 mM maleate buffer pH 6.5, 0-10 mM substrate, 10 min.

Substrate in series [4]: O=[N+]([O-])c1ccc(O[C@@H]2O[C@H](CO)[C@H](O)[C@H](O)[C@H]2O)cc1
As to conditions: 90°C, 20 mM maleate buffer pH 6.5, 0-25 mM substrate, 10 min.

For TaGH2 (Thermus antranikianii), in series [1], the Km came out at 730 ± 30 µM, the Vmax amounted to 4028 ± 21 µmol/min/mg, the kcat came to 21600 s⁻¹ and the kcat/Km was 2.95e+07 M⁻¹ s⁻¹. For the same molecule, in series [2], the Michaelis constant (Km) turned out to be 2200 ± 20 µM, the Vmax is 2615 ± 3 µmol/min/mg, the kcat is 14000 s⁻¹ and the kcat/Km turned out to be 6.36e+06 M⁻¹ s⁻¹.

B1: TbGH2 (Thermus brockianus) (protein)
chain: RLKSALFLAHPAGEPEALPEEGWREVALPHQWTLEGLEAEVGWYRLTLPEGGPRRFLRSLGDYYQEAWLEGRFLGRHEGYFFPWLLELPPGKELYLRVSAPKEPLGQWPRFKRQIKGVLGQHDCRPGGVSPRGQERGTGGLWGGVEVVFREEVALLHLTHRLHPRPGGWRLLVRLLLDAPRPFAERVLLRLSPENFPGEAWTQEVGLRGDAGRGYREVVWDLPEMPLWEVWERGFPHLFRLEAELAQAQVSAPLGFRTVAWDEEGWLLLNGRRLFLRGTNHIPTQWLAAYSQALAEKDVALLKEAGLNAVRVHAHLTHPVFYEVCDREGVLVWQDFPLQWGYAPDEAFAEEAVRQVRAMVEHYGAHPSIYLWCAQNEPTHNRHALGPLLAAELRAQDPSRLVKEASDFREHPYPGWYWGHFRDFLALPGAPLPSEFGAQALPRAELLRRVLGEAAWPPKWEVWAYHNFQPHETFRVAGVEMGTSLESFVENSQAYQARLLSFAIHVYRRAKGKVVGYFQFLFAEPWEGITWAVLDVERIPKKGFHALKEASSPVLLSLVPYRERLEVGGVPLWEAWLVNDLERPLTLRVALALEGPVALPLWEGEVAVAGGEVRRFFSLGELWESPWEAQERLMRVAEALRRLPPGRYRLVGEAWEGERLWSRQVVELVYLEPLVPPGEAW
For the molecule B1, in “purified protein [3]”, the Km amounted to 500 ± 20 µM, the Vmax amounted to 778 µmol/min/mg, the kcat amounted to 3900 s⁻¹ and the kcat/Km was 7.8e+06 M⁻¹ s⁻¹. Further, in the series “purified protein [4]”, the Km was 3560 ± 70 µM, the Vmax was 1333 ± 11 µmol/min/mg, the kcat turned out to be 6680 s⁻¹ and the kcat/Km was 1.88e+06 M⁻¹ s⁻¹.
